Experimental data published in article doi:10.1101/2025.03.07.642025, “The TONSL-MMS22L complex and FANCM form an interdependent complex on chromatin to counter replication stress” (bioRxiv, 2025).
Values belong to the binder of their own block, whether it stands above or below them.

Columns and labels:
[1] = target: T1, FANCM (human (endogenous in HeLa), UniProt Q8IYD8 1-2048); experiment: proximity ligation; Duolink PLA in HeLa cells treated with 1.5 uM TMP and UVA (3 J/cm2), 60 min in fresh medium before fixation; details: partners not purified
T1 construct: FANCM, human, endogenous in HeLa cells; also called endogenous FANCM; source: endogenous, HeLa
T1 sequence (Q8IYD8 whole entry): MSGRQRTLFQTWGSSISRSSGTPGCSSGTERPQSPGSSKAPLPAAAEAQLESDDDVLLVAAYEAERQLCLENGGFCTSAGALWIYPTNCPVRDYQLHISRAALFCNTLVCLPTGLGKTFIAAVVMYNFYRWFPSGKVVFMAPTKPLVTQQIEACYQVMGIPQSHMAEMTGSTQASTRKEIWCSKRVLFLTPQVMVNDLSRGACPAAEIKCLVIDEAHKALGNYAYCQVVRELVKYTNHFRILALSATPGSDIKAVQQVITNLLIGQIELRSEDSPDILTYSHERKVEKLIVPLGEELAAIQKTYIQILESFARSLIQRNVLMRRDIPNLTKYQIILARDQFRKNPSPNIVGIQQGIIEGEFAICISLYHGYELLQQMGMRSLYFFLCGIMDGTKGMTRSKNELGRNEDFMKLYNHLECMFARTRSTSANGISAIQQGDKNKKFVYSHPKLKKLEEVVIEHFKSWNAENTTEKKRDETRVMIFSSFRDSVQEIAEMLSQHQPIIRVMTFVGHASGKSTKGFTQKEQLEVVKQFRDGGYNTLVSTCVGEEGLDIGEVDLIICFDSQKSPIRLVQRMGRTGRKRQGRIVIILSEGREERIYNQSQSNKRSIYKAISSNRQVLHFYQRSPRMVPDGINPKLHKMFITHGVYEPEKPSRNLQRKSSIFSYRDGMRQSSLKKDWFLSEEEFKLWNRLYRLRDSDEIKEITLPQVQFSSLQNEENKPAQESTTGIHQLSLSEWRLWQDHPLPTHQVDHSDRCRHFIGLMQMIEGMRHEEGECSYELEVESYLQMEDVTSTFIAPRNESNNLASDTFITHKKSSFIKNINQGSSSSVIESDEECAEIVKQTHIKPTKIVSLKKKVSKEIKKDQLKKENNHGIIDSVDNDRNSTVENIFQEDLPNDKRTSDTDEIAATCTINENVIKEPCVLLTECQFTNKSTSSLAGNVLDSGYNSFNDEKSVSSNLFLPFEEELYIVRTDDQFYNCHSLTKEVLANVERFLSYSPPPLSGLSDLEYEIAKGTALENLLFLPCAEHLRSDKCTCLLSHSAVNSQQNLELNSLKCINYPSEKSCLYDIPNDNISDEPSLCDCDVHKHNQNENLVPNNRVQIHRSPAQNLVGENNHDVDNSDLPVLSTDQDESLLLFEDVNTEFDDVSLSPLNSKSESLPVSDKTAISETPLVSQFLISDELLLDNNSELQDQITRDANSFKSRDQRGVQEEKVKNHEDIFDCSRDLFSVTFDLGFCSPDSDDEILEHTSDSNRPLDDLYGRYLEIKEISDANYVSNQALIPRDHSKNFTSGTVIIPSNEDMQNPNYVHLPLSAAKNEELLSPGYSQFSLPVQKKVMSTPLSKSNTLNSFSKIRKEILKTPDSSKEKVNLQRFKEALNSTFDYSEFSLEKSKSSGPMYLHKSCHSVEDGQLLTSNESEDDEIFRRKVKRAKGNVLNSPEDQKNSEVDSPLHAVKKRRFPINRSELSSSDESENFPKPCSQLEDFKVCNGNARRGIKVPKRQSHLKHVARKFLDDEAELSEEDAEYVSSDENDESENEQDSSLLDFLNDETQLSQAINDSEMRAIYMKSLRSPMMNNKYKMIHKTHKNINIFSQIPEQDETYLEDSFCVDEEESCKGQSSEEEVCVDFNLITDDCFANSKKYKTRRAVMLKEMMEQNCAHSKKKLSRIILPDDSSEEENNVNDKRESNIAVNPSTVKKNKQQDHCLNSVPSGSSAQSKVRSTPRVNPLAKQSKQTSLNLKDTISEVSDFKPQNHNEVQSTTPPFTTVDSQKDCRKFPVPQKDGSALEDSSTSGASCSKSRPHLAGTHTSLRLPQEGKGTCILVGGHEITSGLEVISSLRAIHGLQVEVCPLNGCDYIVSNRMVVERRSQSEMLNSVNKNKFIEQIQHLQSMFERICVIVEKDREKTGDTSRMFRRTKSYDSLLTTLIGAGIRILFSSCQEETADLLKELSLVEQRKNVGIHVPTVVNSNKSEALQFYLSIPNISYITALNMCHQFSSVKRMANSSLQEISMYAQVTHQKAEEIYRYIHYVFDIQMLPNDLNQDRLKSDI

[2] = target: T1, FANCM; experiment: proximity ligation; PLA in TMP/UVA-treated cells, early and late S phase sorted by flow cytometry; PCNA as marker of the S phase stage; details: partners not purified

fold increase of PLA signals, TMP/UVA-treated over UVA-treated cells [1]: ~20 fold
fold increase of PLA signals, late S over early S phase [2]: ~20 fold
B1: MMS22L (natural protein, human (endogenous in HeLa), UniProt Q6ZRQ5 1-1243, looked up)
chain: MENCSAASTFLTDSLELELGTEWCKPPYFSCAVDNRGGGKHFSGESYLCSGALKRLILNLDPLPTNFEEDTLEIFGIQWVTETALVNSSRELFHLFRQQLYNLETLLQSSCDFGKVSTLHCKADNIRQQCVLFLHYVKVFIFRYLKVQNAESHVPVHPYEALEAQLPSVLIDELHGLLLYIGHLSELPSVNIGAFVNQNQIKLFPPSWHLLHLHLDIHWLVLEILYMLGEKLKQVVYGHQFMNLASDNLTNISLFEEHCETLLCDLISLSLNRYDKVRSSESLMSDQCPCLCIKELWVLLIHLLDHRSKWFVSESFWNWLNKLLKTLLEKSSDRRRSSMPVIQSRDPLGFSWWIITHVASFYKFDRHGVPDEMRKVESNWNFVEELLKKSISVQGVILEEQLRMYLHCCLTLCDFWEPNIAIVTILWEYYSKNLNSSFSISWLPFKGLANTMKSPLSMLEMVKTCCCDKQDQELYKSSSSYTIFLCILAKVVKKAMKSNGPHPWKQVKGRIYSKFHQKRMEELTEVGLQNFFSLFLLLAAVAEVEDVASHVLDLLNFLKPAFVTSQRALIWKGHMAFLLMYAQKNLDIGVLAEKFSCAFREKAKEFLVSKNEEMVQRQTIWTLLSIYIDGVQEVFETSYCLYPSHEKLLNDGFSMLLRACRESELRTVLSFLQAVLARIRSMHQQLCQELQRDNVDLFVQSSLSAKERHLAAVASALWRHFFSFLKSQRMSQVVPFSQLADAAADFTLLAMDMPSTAPSDFQPQPVISIIQLFGWDDIICPQVVARYLSHVLQNSTLCEALSHSGYVSFQALTVRSWIRCVLQMYIKNLSGPDDLLIDKNLEEAVEKEYMKQLVKLTRLLFNLSEVKSIFSKAQVEYLSISEDPKKALVRFFEAVGVTYGNVQTLSDKSAMVTKSLEYLGEVLKYIKPYLGKKVFSAGLQLTYGMMGILVKSWAQIFATSKAQKLLFRIIDCLLLPHAVLQQEKELPAPMLSAIQKSLPLYLQGMCIVCCQSQNPNAYLNQLLGNVIEQYIGRFLPASPYVSDLGQHPVLLALRNTATIPPISSLKKCIVQVIRKSYLEYKGSSPPPRLASILAFILQLFKETNTDIYEVELLLPGILKCLVLVSEPQVKRLATENLQYMVKACQVGSEEEPSSQLTSVFRQFIQDYGMRYYYQVYSILETVATLDQQVVIHLISTLTQSLKDSEQKWGLGRNIAQREAYSKLLSHLGQMGQDEMQRLENDNT
notes: MMS22L, human, endogenous in HeLa cells; source: endogenous, HeLa

fold increase of PLA signals, TMP/UVA-treated over UVA-treated cells [1]: ~20 fold
fold increase of PLA signals, late S over early S phase [2]: ~20 fold
B2: TONSL (natural protein, human (endogenous in HeLa), UniProt Q96HA7 1-1378, looked up)
chain: MSLERELRQLSKAKAKAQRAGQRREEAALCHQLGELLAGHGRYAEALEQHWQELQLRERADDPLGCAVAHRKIGERLAEMEDYPAALQHQHQYLELAHSLRNHTELQRAWATIGRTHLDIYDHCQSRDALLQAQAAFEKSLAIVDEELEGTLAQGELNEMRTRLYLNLGLTFESLQQTALCNDYFRKSIFLAEQNHLYEDLFRARYNLGTIHWRAGQHSQAMRCLEGARECAHTMRKRFMESECCVVIAQVLQDLGDFLAAKRALKKAYRLGSQKPVQRAAICQNLQHVLAVVRLQQQLEEAEGRDPQGAMVICEQLGDLFSKAGDFPRAAEAYQKQLRFAELLDRPGAERAIIHVSLATTLGDMKDHHGAVRHYEEELRLRSGNVLEEAKTWLNIALSREEAGDAYELLAPCFQKALSCAQQAQRPQLQRQVLQHLHTVQLRLQPQEAPETETRLRELSVAEDEDEEEEAEEAAATAESEALEAGEVELSEGEDDTDGLTPQLEEDEELQGHLGRRKGSKWNRRNDMGETLLHRACIEGQLRRVQDLVRQGHPLNPRDYCGWTPLHEACNYGHLEIVRFLLDHGAAVDDPGGQGCEGITPLHDALNCGHFEVAELLLERGASVTLRTRKGLSPLETLQQWVKLYRRDLDLETRQKARAMEMLLQAAASGQDPHSSQAFHTPSSLLFDPETSPPLSPCPEPPSNSTRLPEASQAHVRVSPGQAAPAMARPRRSRHGPASSSSSSEGEDSAGPARPSQKRPRCSATAQRVAAWTPGPASNREAATASTSRAAYQAAIRGVGSAQSRLGPGPPRGHSKALAPQAALIPEEECLAGDWLELDMPLTRSRRPRPRGTGDNRRPSSTSGSDSEESRPRARAKQVRLTCMQSCSAPVNAGPSSLASEPPGSPSTPRVSEPSGDSSAAGQPLGPAPPPPIRVRVQVQDHLFLIPVPHSSDTHSVAWLAEQAAQRYYQTCGLLPRLTLRKEGALLAPQDLIPDVLQSNDEVLAEVTSWDLPPLTDRYRRACQSLGQGEHQQVLQAVELQGLGLSFSACSLALDQAQLTPLLRALKLHTALRELRLAGNRLGDKCVAELVAALGTMPSLALLDLSSNHLGPEGLRQLAMGLPGQATLQSLEELDLSMNPLGDGCGQSLASLLHACPLLSTLRLQACGFGPSFFLSHQTALGSAFQDAEHLKTLSLSYNALGAPALARTLQSLPAGTLLHLELSSVAAGKGDSDLMEPVFRYLAKEGCALAHLTLSANHLGDKAVRDLCRCLSLCPSLISLDLSANPEISCASLEELLSTLQKRPQGLSFLGLSGCAVQGPLGLGLWDKIAAQLRELQLCSRRLCAEDRDALRQLQPSRPGPGECTLDHGSKLFFRRL
notes: TONSL, human, endogenous in HeLa cells; source: endogenous, HeLa
